Experimental data reported in article PMC8471396.
Several values for one entry are separate records, joined by “and”; a condition that tells them apart may be missing. Equal values may be shown once.

Tests used:
[1] = target: succinate-acetate permease (SatP) from Citrobacter koseri ATCC BAA-895 (Citrobacter koseri ATCC BAA-895); assay: cross-linking; SatP in DOPC/DOPG liposomes, 10 uM protein in 20 mM HEPES pH 7.3; 0.5 mM BS3 (DMSO as control), room temperature, 1 h; 4-20% gradient SDS-PAGE
[2] = target: succinate-acetate permease (SatP) from Citrobacter koseri ATCC BAA-895 (Citrobacter koseri ATCC BAA-895); assay: SDS-PAGE and Western blot of oligomer bands; SatP in SMA native nanodiscs from E. coli membranes, after the nickel affinity column; no cross-linker; anti-His Western blot

stoichiometry N [1]: 6 and 5 and 4
stoichiometry N [2]: 6
Substance: succinate-acetate permease (SatP) from Citrobacter koseri ATCC BAA-895 (natural protein)
